Read-outs that look alike come from different tables or passages of the source.
Columns and labels:
[1] = target: T1, YU-2 gp140 (HIV-1 YU2, UniProt P35961 32-670); experiment: SPR, gp140 on chip, IgG injected
T1 construct: domain: gp140; also called YU2 gp140 trimer

[2] = target: T2, YU2 gp120 (HIV-1 YU2, UniProt P35961 32-498); experiment: ELISA, column Binding
T2 construct: domain: gp120
Procedure: (§1) ELISAs. […] After washing, plates were blocked 2 h with 2% BSA, 1 μM EDTA, 0.05% Tween-PBS (Blocking buffer) and then, incubated 2h with IgG antibodies diluted at 4 μg/ml and several consecutive 1:4 dilutions in PBS. After washing, the plates were developed by incubation for 1 h with goat HRP-conjugated anti-mouse IgG (Jackson ImmunoReseach) (at 0.8 μg/ml in blocking buffer) and by adding 100 μl of HRP chromogenic substrate (ABTS solution, Invitrogen). […] Background values given by incubation of PBS alone in coated wells were subtracted. […] Threshold values for reactivity were determined by using control antibodies mGO53 (negative), eiJB40 (low positive), and ED38 (high positive).

[3] = target: T2, YU2 gp120; experiment: ELISA, column Binding; remark: listed apart in the source
Procedure: as §1

[4] = target: T1, YU-2 gp140; experiment: SPR, gp140 on chip, IgG injected; minus sign of the exponent missing in print (kd/ka gives 3.75e-12)

Binder | Kd [1] [nM] | koff [1] [s⁻¹] | kon [1] [M⁻¹ s⁻¹] | binding result [2] | binding result [3] | Kd [4] [nM]
12A12 (antibody, V domains shown, also called 12A12HC; 12a12kc) VH: SQQLVQSGTQVKKPGASVRISCQASGYSFTDYVLHWWRQAPGQGLEWMGWIKPVYGARNYARRFQGRINFDRDIYREIAFMDLSGLRSDDTALYFCARDGSGDDTSWHLDPWGQGTLVIVSA VL: DIQMTQSPSSLSASVGDRVTITCQAGQGIGSSLQWYQQKPGKAPKLLVHGASNLHRGVPSRFSGSGFHTTFSLTISGLQRDDFATYFCAVLEFFGPGTKVEIKR | 0.315 | 1.44e-05 | 45900 |  |  | 
8ANC50 (antibody, V domains shown, also called 8ANC50HC; 8ANC50KC) VH: QGQLVQSGGGVKKPGTSVTISCLASEYTFTEFTIHWIRQAPGQGPLWLGLIKRSGRLMTAYRFQDRLSLRRDRSTGTVFMELRNLRMDDTAVYYCARDGLGELAPAYQYGIDVWGQGTTVIVSS VL: EIVLTQSPTTLSLSPGERATLSCRASQGVNLVVWYQQKRGQAPRLLIYGPSDRAPGVPDRFSARGSGTEFSLVISSVEPDDFALYYCQEYSSTPYNFGTGTRVDRKR |  |  |  | binds |  | 
8ANC14 (antibody, V domains shown, also called 8ANC14HC; 8ANC14KC) VH: QVQLVQSGAEVKKPGASVKVSCKVSGYTLTELSIHWVRQAPGKGLEWMGGFDSEDGEAFYKQNFQGRVTMTEDTSTDTAYMELRRLRSEDTAVYYCATADRFKVAQDEGLFVIFDYWGQGTLVTVSS VL: EIVLTQSPATLSLSPGERATLSCRASQSINNYLAWYQQKPGQAPRLLIYDASNRATGIPARFSGGGSGTDFTLTISSLEPEDFAVYYCQQRANWRLLTFGGGTKVEIKR |  |  |  | binds |  | 
8ANC5 (antibody, V domains shown, also called 8ANC5HC; 8ANC5KC) VH: QVQLVQSGAEVRKPGSSLKVSCKSSGGTFSRFVVNWVRQAPGQGLEWMGGMIPIFGIAKYAQKFQDRVTMTADESKNTVYLDFSSLRSDDTAVYYCARDRGDTRLLDYGDYEDERYYYGMDVWGQGTTVIVSS VL: DIQMTQSPPSLSASVGDRVTITCQASQDINNFLNWYQQKPGKAPRLLIYDASNLESGVSSRFSGSRSGTDFTLTISSLLPEDIATYSCQQYSNLPYTFSQGTKLEIKR |  |  |  | binds |  | 
8ANC24 (antibody, V domains shown, also called 8ANC24HC; 8ANC24KC) VH: QVQLVQSGAEVKMPGASVKVSCKVSGYSLTELSIHWVRQAPGKRLEWMGGFDPEDDERIYAQKFQDRVTMTEDTSTDTAYMDLNSLRSEDTAVYYCTTGGLYCSSISCIMDVWGQGTTVIVSS VL: EIVMTQSPATLSMSPGERATLSCRASLSVNTNLAWYQQKPGQAPRLLIYGASTRATGIPARFSGSGSGTEFTLTISSLQSEDFALYYCQQYNHWPQTFGQGTKVEIKR |  |  |  | binds |  | 
3B27 (antibody, V domains shown, also called 3B27HC; 3b27kc) VH: EVQLVESGGGLVQPGGSLRISCSATGFTFSTHAMHWVRQAPGKGLEYVSAINSNGRSAFYADSVKGRVTISRDNSKNTLFLQMTSLRAEDTAVYYCVKGPLLRYLDSWGQGTLVTVSS VL: EIVLTQSPATLSVSPGERATLSCRAGQSVSSDLAWYQHKPGQAPRLLIYDASKRATGIPARFSGSGSGTDFTLTISSLEPEDFAVYYCQHRTNWPPSITFGQGTRLEIKR |  |  |  |  | binds | 
3B41 (antibody, V domains shown, also called 3B41HC; 3b41kc) VH: EVQLVQSGAEVKKPGASVKVSCKVSGYTLTELSMHWVRQAPGKGLEWMGVFDPLEGDGVYAEKFRGRVIMTEDTSTDTGYMELTSLRSEDTAIYYCATKAKDYYYESSDYSPYYYYYMDVWGKGTTVTVSS VL: EIVLTQSPGTLSLSPGERATLSCRASQSVSSNYLAWYQQKPGQAPRLLIYGASSRATGIPDRFSGSGSGTDFTLSISRLEPEDFAVYYCQQYGTSSCTFGQGTKLEIKR |  |  |  |  | binds | 
3BNC60 (antibody, V domains shown, also called 3BNC60HC; 3BNC60KC) VH: QVHLSQSGAAVTKPGASVRVSCEASGYKISDHFIHWWRQAPGQGLQWVGWINPKTGQPNNPRQFQGRVSLTRQASWDFDTYSFYMDLKAVRSDDTAIYFCARQRSDFWDFDVWGSGTQVTVSSASTKG VL: DIQMTQSPSSLSARVGDTVTITCQANGYLNWYQQRRGKAPKLLIYDGSKLERGVPARFSGRRWGQEYNLTINNLQPEDVATYFCQVYEFIVPGTRLDLKRTVAA | 6.81 | 0.000186 | 27300 |  |  | 
3BNC117 (antibody, V domains shown, also called 3BNC117HC; 3bnc117kc) VH: QVQLLQSGAAVTKPGASVRVSCEASGYNIRDYFIHWWRQAPGQGLQWVGWINPKTGQPNNPRQFQGRVSLTRHASWDFDTFSFYMDLKALRSDDTAVYFCARQRSDYWDFDVWGSGTQVTVSSASTKG VL: DIQMTQSPSSLSASVGDTVTITCQANGYLNWYQQRRGKAPKLLIYDGSKLERGVPSRFSGRRWGQEYNLTINNLQPEDIATYFCQVYEFVVPGTRLDLKRTVAAPSVFIFPPSD | 6.54 | 0.000199 | 30400 |  |  | 
3BNC55 (antibody, V domains shown, also called 3BNC55HC; 3BNC55KC) VH: QVQLVQSGTAVKRPGASVRVSCQASGYTFTDYFIYWWRQAPGQGLEWLGWINPLTSQPSYPSRFQGRLTLTRDTFDEMLYMDLRGLRSDDTGIYFCARRHSDYCDFDIWGSGTQIIVSS VL: DIQMTQSPSSLSASVGDKVTITCQTSAGYLNWYQQRRGRAPKLLMYDGSRLVTGVPSRFSGRRWGTQYNLTIGSLQPEDIATYYCQVYEFFGPGTRLDLKS | 57.8 | 0.000755 | 13100 |  |  | 
3BNC66 (antibody, V domains shown, also called 3BNC66HC; 3bnc66kc) VH: QVQLVQSGAALKKPGASLRISCQTYGYKFTDHLIYWWRQAPGQGLEWIGWIKPETGQPSYSYRFQGRVSLTRDTFEEIAFMDLRGLRSDDTAIYFCARRHTDYCVFDVWGSGSQIIVSS VL: DIQMTQSPSSLSASVGDTVTITCQTNKGYLNWYQQRRGRAPKLLMYDGSKLVTGVPSRLSGRRWGTQYNLTIGSLQPEDIATYYCQVYEFFGPGTRLDLKR | 88.1 | 0.00141 | 16000 |  |  | 
3BNC156 (antibody, V domains shown, also called 3BNC156HC; 3bnc156kc) VH: QVQLVQSGAALKKPGASLRISCQTYGYKFTDHLIYWWRQAPGQGLEWIGWIKPETGQPSYSYRFQGRVSLTRDTFEEIVFMDLRGLRSDDTAIYFCARRHSDYCDFDVWGGGSQVIVSS VL: DIQMTQSPSSLSASVGDTVTITCQTNKGYLNWYQQKRGRAPKLLMYDGSKLVTGVPSRLSGRRWGTQYNLTIGSLQPEDIATYYCQVYEFFGPGTRLDLKR | 175 | 0.00198 | 11300 |  |  | 
8ANC131 (antibody, V domains shown, also called 8ANC131HC; 8ANC131KC) VH: QGQLVQSGGGLKKPGTSVTISCLASEYTFNEFVIHWIRQAPGQGPLWLGLIKRSGRLMTAYNFQDRLRLRRDRSTGTVFMELRGLRPDDTAVYYCARDGLGEVAPDYRYGIDVWGQGSTVIVTA VL: EIVLTQSPATLSLSPGERATLSCRASQGLNFVVWYQQKRGQAPRLLIHAPSGRAPGVPDRFSARGSGTEFSLVISSVEPDDFAIYYCQEYSSTPYNFGPGTRVDRKR | 16.5 | 0.00109 | 65900 |  |  | 
8ANC134 (antibody, V domains shown, also called 8ANC134HC; 8ANC134KC) VH: QGQLVQSGGGVKKPGTSVTISCLASEYTFNEFVIHWIRQAPGQGPVWLGLIKRSGRLMTSYKFQDRLSLRRDRSTGTVFMELRGLRLDDTAVYYCARDGLGEVAPAYLYGIDAWGQGSTVIVTS VL: EIVLTQSPATLSLSPGERATLSCRASQGLNFVVWYQQKGGQAPRLLIHGPTDRAPGVPDRFSARGSGTEFSLVISSVEPDDFALYYCQEYSSTPYNFGPGTRVDRKR | 113 | 0.00174 | 15500 |  |  | 
8ANC195 (antibody, V domains shown, also called 8ANC195HC; 8ANC195KC) VH: QIHLVQSGTEVKKPGSSVTVSCKAYGVNTFGLYAVNWVRQAPGQSLEYIGQIWRWKSSASHHFRGRVLISAVDLTGSSPPISSLEIKNLTSDDTAVYFCTTTSTYDKWSGLHHDGVMAFSSWGQGTLISVSA VL: DIQMTQSPSTLAASIGGTVRVSCRASQSITGNWVAWYQQRPGKAPRLLIYRGAALLGGVPSRFSGSAAGTDFTLTIGNLQAEDFGTFYCQQYDTYPGTFGQGTKVEVKR | 34.3 | 0.00167 | 48800 |  |  | 
1NC9 (antibody, V domains shown, also called LSSNEC9HC; LSSNEC9LC) VH: QVRLVQSGAQLKKPGASVTVSCEASGYNFVNYIINWVRQTPGRSFEWVGMIDPRRGRPWSAQKFQGRLTLTRDIDSEKLYMHLSGLRGDDTAVYYCARQDSDFHDGHGHTLRGMFDSWGQGSPVTVSS VL: QVLSVSGTPGQRVIISCSGTSSNVGGNLVSWYQHLPGAAPRLLIHRDDQRPSGVPDRFSGSKSGNSASLVISGLRSDDEADYFCAAYDSTFSLPVFGGGTRLTVLS | 12 | 0.000581 | 48300 |  |  | 
1B2530 (antibody, V domains shown, also called LSSB2530HC; LSSB2530LC) VH: QVRLEQSGAAMRKPGASVTLSCQASGYNFVKYIIHWVRQKPGLGFEWVGMIDPYRGRPWSAHKFQGRLSLSRDTSMEILYMTLTSLKSDDTATYFCARAEAASDSHSRPIMFDHWGQGSRVTVSS VL: QSALTQPPSASGAPGQRVTISCSGGPSNVGGNYVYWYRQFPGTAPTLLILRDDQRPSGVPDRFSASKSGNSASLAISGLRPDDEGFYFCATYDSDGSIRLFGGGTALTVLS | 34.2 | 0.00162 | 47400 |  |  | 
12A21 (antibody, V domains shown, also called 12A21HC; 12a21kc) VH: SQHLVQSGTQVKKPGASVRVSCQASGYTFTNYILHWWRQAPGQGLEWMGLIKPVFGAVNYARQFQGRIQLTRDIYREIAFLDLSGLRSDDTAVYYCARDESGDDLKWHLHPWGQGTQVIVSP VL: DIQMTQSPSSLSASVGDRVTINCQAGQGIGSSLNWYQKKPGRAPKLLVHGASNLQRGVPSRFSGSGFHTTFTLTISSLQPDDVATYFCAVFQWFGPGTKVDIKR |  | 3.44e-07 | 91800 |  |  | 0.00375
NIH45-46 (antibody, V domains shown) VH: QVRLSQSGGQMKKPGESMRLSCRASGYEFLNCPINWIRLAPGRRPEWMGWLKPRGGAVNYARKFQGRVTMTRDVYSDTAFLELRSLTSDDTAVYFCTRGKYCTARDYYNWDFEH VL: EIVLTQSPATLSLSPGETAIISCRTSQSGSLAWYQQRPGQAPRLVIYSGSTRAAGIPDRFSGSRWGADYNLSISNLESGDFGVYYCQQYEFFG | 6.75 | 0.000287 | 42600 |  |  | 
